According to patent publication US20150203577A1 (Chugai, published 2015):
Numbering of substitutions follows the chain as printed. Names and notes keep the numbering of the source.

B1: FS134 (antibody, human IgG1, kappa)
heavy: QVQLQESGPGLVKPSETLSLTCAVSGHSISHDHAWSWVRQPPGEGLEWIGFISYSGITNYNPSLQGRVTISRDNSKNTLYLQMNSLRAEDTAVYYCARSLARTTAMDYWGEGTLVTVSSASTKGPSVFPLAPSSKSTSGGTAALGCLVKDYFPEPVTVSWNSGALTSGVHTFPAVLQSSGLYSLSSVVTVPSSSLGTQTYICNVNHKPSNTKVDKKVEPKSCDKTHTCPPCPAPELLGGPDVFLFPPKPKDTLMISRTPEVTCVVVDVSDEDPEVKFNWYVDGVEVHNAKTKPREEQYNSTYRVVSVLTVLHQDWLNGKEYKCKVSNKAYPAPIEKTISKAKGQPREPQVYTLPPSRDELTKNQVSLTCLVKGFYPSDIAVEWESNGQPENNYKTTPPVLDSDGSFFLYSKLTVDKSRWQQGNVFSCSVMHEALHNHYTQKSLSLSPGK
light: not shown
notes: human IgG1 constant region variant; copies: 2 + 2
B2: FS135 (antibody, human IgG1, kappa)
heavy: B1 heavy with S269A, D270H
light: not shown
notes: as for B1
B3: FS133 (antibody, human IgG1, kappa)
heavy: B1 heavy with Y330W
light: not shown
notes: as for B1
B4: FS131 (antibody, human IgG1, kappa)
heavy: B1 heavy with L236W, D270H
light: not shown
notes: as for B1
B5: FS132 (antibody, human IgG1, kappa)
heavy: B1 heavy with D270H, A329D
light: not shown
notes: as for B1
B6: F616 (antibody, human IgG1, kappa)
heavy: B1 heavy with D270H, K328D
light: not shown
notes: as for B1
B7: H237-MB338/MRAL-k0 (antibody, mouse IgG1, kappa)
heavy: QVQLQESGPGLVKPSETLSLTCAVSGHSISHDHAWSWVRQPPGEGLEWIGFISYSGITNYNPSLQGRVTISRDNSKNTLYLQMNSLRAEDTAVYYCARSLARTTAMDYWGEGTLVTVSSAKTTPPSVYPLAPGSAAQTNSMVTLGCLVKGYFPEPVTVTWNSGSLSSGVHTFPAVLQSDLYTLSSSVTVPSSTWPSETVTCNVAHPASSTKVDKKIVPRDCGCKPCICEDPEVEDVFIFPPKPKDVLTITLTPKVTCVVVDISKDDPEVQFSWFVDDVEVHTAQTQPREEQFNSTFRSVSELPIMHQDWLNGKEFKCRVNSAAFPAPIEKTISKTKGRPKAPQVYTIPPPKEQMAKDKVSLTCMITDFFPEDITVEWQWNGQPAENYKNTQPIMDTDGSYFVYSKLNVQKSNWEAGNTFTCSVLHEGLHNHHTEKSLSHSPGK
light: not shown
notes: copies: 2 + 2
B8: H237-mIgG1/MRAL-k0 (antibody)
heavy: B7 heavy with E229T, D230V, E234S, D235S
light: not shown
notes: Anti-IL-6 receptor antibody with unaltered mouse IgG1 H chain constant region; copies: 2 + 2
B9: H237-MB706/MRAL-k0 (antibody, mouse IgG1, kappa)
heavy: B7 heavy with D230P, P231A, D235V
light: not shown
notes: copies: 2 + 2
B10: H237-MB711/MRAL-k0 (antibody, mouse IgG1, kappa)
heavy: B7 heavy with D230P, P231A, D235R
light: not shown
notes: copies: 2 + 2
B11: H237-MB721/MRAL-k0 (antibody, mouse IgG1, kappa)
heavy: B7 heavy with D230P, P231N, D235H
light: not shown
notes: copies: 2 + 2
B12: H237-MB390/MRAL-k0 (antibody, mouse IgG1, kappa)
heavy: B7 heavy with D230P, P231N
light: not shown
notes: mIgG1 with T230E/V231P/P232N/S238E/S239D; also called template T8; copies: 2 + 2
B13: H237-mIgG1/MRAL-k0 (antibody)
heavy: B7 heavy with E229T, D230V, E234S, D235S
light: not shown
notes: Anti-IL-6 receptor antibody with the unaltered mouse IgG1 H chain constant region; copies: 2 + 2
B14: H237-MB477/MRAL-k0 (antibody, mouse IgG1, kappa)
heavy: B7 heavy with D230P, P231N, S263A
light: not shown
notes: mouse IgG1 CH variant; copies: 2 + 2
B15: H237-MB492/MRAL-k0 (antibody, mouse IgG1, kappa)
heavy: B7 heavy with D230P, P231N, N320D
light: not shown
notes: as for B14
B16: H237-MB792/MRAL-k0 (antibody, mouse IgG1, kappa)
heavy: B7 heavy with E229Q, D230P, P231N, D235V
light: not shown
notes: copies: 2 + 2
B17: H237-MB712/MRAL-k0 (antibody, mouse IgG1, kappa)
heavy: B7 heavy with D230P, P231A, D235H
light: not shown
notes: copies: 2 + 2
B18: H237-MB720/MRAL-k0 (antibody, mouse IgG1, kappa)
heavy: B7 heavy with D230P, P231N, D235R
light: not shown
notes: copies: 2 + 2
B19: H237-MB707/MRAL-k0 (antibody, mouse IgG1, kappa)
heavy: B7 heavy with D230P, P231A, D235I
light: not shown
notes: copies: 2 + 2

Assays:
mouse FcγRII [1] = target: T1, mouse FcγRII (mouse, UniProt P08101 30-210); experiment: SPR Biacore T200, KD ratio
T1 construct: also called mFcγRII; mFcgRII
T1 sequence: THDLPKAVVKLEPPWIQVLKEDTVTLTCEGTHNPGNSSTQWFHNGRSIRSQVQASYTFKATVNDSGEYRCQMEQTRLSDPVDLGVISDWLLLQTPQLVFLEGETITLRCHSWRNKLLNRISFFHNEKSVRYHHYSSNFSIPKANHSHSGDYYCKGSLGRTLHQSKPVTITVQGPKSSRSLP
Procedure: (§1) The antibody L chain commonly used was the L chain MRAL-k0 (SEQ ID NO: 2) of the anti-IL-6 receptor antibody tocilizumab. The antibody H chain constant region used was each of the aforementioned 8 Fc variants prepared by altering human IgG1 hIgG1 (SEQ ID NO: 3) as a template.
(§2) Each altered antibody was analyzed for its interaction with each Fcγ receptor prepared above using Biacore T100 (GE Healthcare Japan Corp.), Biacore T200 (GE Healthcare Japan Corp.), Biacore A100, or Biacore 4000. The running buffer used was HBS-EP+ (GE Healthcare Japan Corp.). The assay temperature was set to 25° C. The sensor chips used were chips prepared by immobilizing Protein L (ACTIGEN or BioVision) onto Series S Sensor Chip CM5 (GE Healthcare Japan Corp.) or Series S Sensor Chip CM4 (GE Healthcare Japan Corp.) by the amine coupling method.
(§3) In order to calculate the KD value of each altered antibody for FcγR, kinetic analysis was conducted according to the following method: first, the antibody of interest was captured onto any of these chips and allowed to interact with mFcγR diluted with a running buffer. For the obtained sensorgram, the assay results were globally fit into the 1:1 Langmuir binding model using Biacore Evaluation Software to calculate an association rate constant ka (L/mol/s) and a dissociation rate constant kd (1/s). From these values, the dissociation constant KD (mol/L) was calculated.

mouse FcγRIII [2] = target: T2, mouse FcγRIII (mouse, UniProt P08508 31-215); experiment: SPR Biacore T200, KD ratio
T2 construct: also called mFcγRIII; mFcgRIII
T2 chain: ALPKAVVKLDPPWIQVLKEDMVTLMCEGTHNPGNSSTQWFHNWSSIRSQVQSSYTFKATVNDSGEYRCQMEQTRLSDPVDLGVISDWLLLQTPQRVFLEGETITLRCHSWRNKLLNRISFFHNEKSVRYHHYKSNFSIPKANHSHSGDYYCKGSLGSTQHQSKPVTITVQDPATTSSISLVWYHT
Procedure: as §1, §2, §3

mouse FcγRII [3] = target: T1, mouse FcγRII; experiment: SPR Biacore T200, KD ratio; remark: listed apart in the source
mouse FcγRIII [4] = target: T2, mouse FcγRIII; experiment: SPR Biacore T200, KD ratio
mouse FcγRII [5] = target: T1, mouse FcγRII; experiment: SPR Biacore T200, KD ratio; remark: listed apart in the source
Description: The antibody H chain variable region used was the variable region H237 (SEQ ID NO: 1) of the H chain VH3-IgG1 of the anti-IL-6 receptor antibody Fv4-IgG1 described in WO2009/125825. The antibody L chain commonly used was the L chain MRAL-k0 (SEQ ID NO: 2) of the anti-IL-6 receptor antibody tocilizumab. H237-MB476/MRAL-k0 and H237-MB515/MRAL-k0 were used as templates to introduce new alterations. These variants were expressed and purified by the method of Reference Example 1 and evaluated for their binding to mFcγRII and mFcγRIII by the method of Reference Example 2 using Biacore T200.
as §2, §3

mouse FcγRIII [6] = target: T3, mouse FcγRIII (mouse, UniProt P08508 31-215); experiment: SPR (Biacore), antibody captured on Protein L, mFcγR as analyte
T3 construct: also called mFcγRIII; mFcgRIII
T3 chain: T2 chain
Procedure: (§4) The antibody of interest was captured onto any of these sensor chips and allowed to interact with mFcγR diluted with a running buffer. The amount bound to the antibody was measured and compared among antibodies. Since the amount of mFcγR bound depends on the amount of the captured antibody, a correction value determined by dividing the amount of mFcγR bound by the amount of each captured antibody was used in the comparison. The antibody captured on the sensor chip was washed off through the reaction of 10 mM glycine-HCl (pH 1.5) to regenerate the sensor chip, which was repetitively used.
as §3

[7] = target: T4, mouse FcγRIII extracellular domain, C-terminally His-tagged (mouse, UniProt P08508 31-215); experiment: SPR Biacore T200
T4 construct: the whole entry is named; also called mFcγRIII; mFcgRIII
T4 chain: T2 chain

[8] = target: T5, mouse FcγRII extracellular domain, C-terminally His-tagged (mouse, UniProt P08101 30-210); experiment: SPR Biacore T200, KD ratio
T5 construct: the whole entry is named; also called mFcγRII; mFcgRII
T5 sequence: T1 sequence

[9] = target: T4, mouse FcγRIII extracellular domain, …; experiment: SPR Biacore T200, antibody captured on Protein L
Procedure: As for alterations, “X000Z” represents the substitution of amino acid X at EU numbering position 000 by amino acid Z. In this context, X and Z represent the one-letter codes of the amino acid residues.
as §2, §3

mouse FcγRII [10] = target: T6, mouse FcγRII (mouse, UniProt P08101 30-210); experiment: SPR (Biacore), antibody captured on Protein L, mFcγR as analyte
T6 construct: also called mFcγRII; mFcgRII
T6 sequence: T1 sequence
Procedure: as §4, §3

Binder	relative mFcγRII-binding activity (mIgG1 = 1) (mouse FcγRII [1])	relative mFcγRIII-binding activity (mIgG1 = 1) (mouse FcγRIII [2])	binding result [7]	relative mFcγRII-binding activity (mIgG1 = 1) [8]	also measured
B1	58.2 fold	20.8 fold	–	–	–
B2	138 fold	34.4 fold	–	–	–
B3	162 fold	86.5 fold	–	–	–
B4	144 fold	33.2 fold	–	–	–
B5	96.7 fold	41.8 fold	–	–	–
B6	186 fold	50.1 fold	–	–	–
B7	–	–	–	–	Relative mFcγRII-binding activity (MB110 = 1) (mouse FcγRII [3]): 3.44 fold; relative mFcγRII-binding activity (mIgG1 = 1) (mouse FcγRII [3]): 42.2 fold; Relative mFcγRIII-binding activity (MB110 = 1) (mouse FcγRIII [4]): 0.64 fold; relative mFcγRIII-binding activity (mIgG1 = 1) (mouse FcγRIII [4]): 2.6 fold; mFcγRII-binding activity relative to H237-MB302/MRAL-k0 (before the introduction of V231D) (mouse FcγRII [5]): ~0.8 fold
B8	–	–	–	–	Kd (mouse FcγRIII [6]): 282 nM
B9	–	–	no binding	0.23 fold	–
B10	–	–	no binding	0.05 fold	–
B11	–	–	no binding	0.3 fold	–
B12	–	–	–	–	relative mFcγRII-binding activity (H237-mIgG1/MRAL-k0 = 1) (mouse FcγRII [5]): > 500 fold
B13	–	–	–	–	Kd [9]: 282 nM
B14	–	–	–	–	Kd (mouse FcγRII [10]): 1.07 nM; relative mFcγRII-binding activity (mIgG1 = 1) (mouse FcγRII [10]): 196 fold; Kd (mouse FcγRIII [6]): 94 nM; relative mFcγRIII-binding activity (mIgG1 = 1) (mouse FcγRIII [6]): 3 fold
B15	–	–	–	–	Kd (mouse FcγRII [10]): 0.338 nM; relative mFcγRII-binding activity (mIgG1 = 1) (mouse FcγRII [10]): 622 fold; Kd (mouse FcγRIII [6]): 25.8 nM; relative mFcγRIII-binding activity (mIgG1 = 1) (mouse FcγRIII [6]): 10.9 fold
B16	–	–	no binding	0.31 fold	–
B17	–	–	no binding	0.16 fold	–
B18	–	–	no binding	0.08 fold	–
B19	–	–	no binding	0.37 fold	–
